Patent publication US20230036928A1 (Sanofi, published 2023)

Molecular target: T1, TGF-β2
T1 sequence (P61812 303-414, species assumed, looked up): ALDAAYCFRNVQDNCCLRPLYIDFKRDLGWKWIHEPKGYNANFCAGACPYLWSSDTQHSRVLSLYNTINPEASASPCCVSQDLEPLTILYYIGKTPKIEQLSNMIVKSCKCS
Experiment: cell-based or functional assay

relative potency (EC50 of the reference divided by EC50 of the test sample) in mink lung cell proliferation assay with PrestoBlue read-out: ~1 ratio (relative potency)
B1: Ab1 (antibody, human IgG4 S228P, kappa, V domains shown)
VH: QVQLVQSGAEVKKPGSSVKVSCKASGYTFSSNVISWVRQAPGQGLEWMGGVIPIVDIANYAQRFKGRVTITADESTSTTYMELSSLRSEDTAVYYCASTLGLVLDAMDYWGQGTLVTVSS
VL: ETVLTQSPGTLSLSPGERATLSCRASQSLGSSYLAWYQQKPGQAPRLLIYGASSRAPGIPDRFSGSGSGTDFTLTISRLEPEDFAVYYCQQYADSPITFGQGTRLEIKR
